For the experiment, the target named is FLAG-PPM1G-YLmut (human) (UniProt O15355). Kind of experiment: co-IP; anti-FLAG affinity gel (25 μl), 1-2 mg lysate of transiently transfected HEK293H cells, 1 h at 4°C, lysis buffer 50 mM HEPES-KOH pH 7.5, 50 mM KCl, 2 mM MgCl2, 2 mM EGTA, 5% glycerol, 0.5% NP40; partners detected by Western blot; in Figure 3B cells treated with DMSO or PP242 for 2 h.
UniProt O15355, sequence (O15355 whole entry Y85A/L90A): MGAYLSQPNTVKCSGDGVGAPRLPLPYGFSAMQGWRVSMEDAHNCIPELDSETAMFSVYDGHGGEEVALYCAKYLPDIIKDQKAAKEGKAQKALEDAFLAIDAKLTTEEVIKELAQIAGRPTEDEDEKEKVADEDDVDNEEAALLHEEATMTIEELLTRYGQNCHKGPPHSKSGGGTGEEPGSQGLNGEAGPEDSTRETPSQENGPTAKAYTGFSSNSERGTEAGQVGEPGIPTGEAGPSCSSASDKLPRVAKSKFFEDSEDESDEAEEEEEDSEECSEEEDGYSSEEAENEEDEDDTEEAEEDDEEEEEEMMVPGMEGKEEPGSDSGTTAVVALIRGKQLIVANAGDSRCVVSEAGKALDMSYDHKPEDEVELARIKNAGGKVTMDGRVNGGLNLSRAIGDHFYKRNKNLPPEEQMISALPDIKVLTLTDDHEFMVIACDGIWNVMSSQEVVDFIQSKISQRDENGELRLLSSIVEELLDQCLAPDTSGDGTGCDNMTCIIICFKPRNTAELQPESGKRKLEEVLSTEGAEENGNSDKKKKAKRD

“endogenous eIF4E (from UniProt P06730 1-217) (natural protein)” displayed a percent decrease of binding against wild-type PPM1G of 80%.

The values are drawn from paper PMC11306785.
